Common to all, as to assay type: biochemical, Quillaja saponaria
Experiment [1] is described as follows: Experiment 4-1: screening of glucosidases for deglycosylation with purified QS-18 (0.04 mg/ml) at pH 7.5 and room temperature. The note with it: pH 7.5, room temperature, 20 h, clarified E. coli lysate, QS-18 2150 to QS-21 1988 by LCMS/MS. The method in brief: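 Candidate glucosidases expressed in E. coli BL21(DE3) (pET24b+, autoinduction, 20 °C for 20 h); clarified lysates in 100 mM potassium phosphate pH 7.5 incubated with QS-18 (0.04 mg/ml final) 20 h at room temperature. Quenched with MeCN, analysed by LC-MS/MS for % conversion; hits >3 S.D. above negative control.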

Experiment [2] is described as follows: Experiment 4-2: screening of glucosidases for deglycosylation with purified QS-18 (1 mg/ml) at pH 6 and 30 deg C. The settings on record: pH 6, 30 degC, 18 hrs, clarified lysate, LCMS/MS. Summed up:
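Clarified lysates of glucosidase-expressing cells in 100 mM potassium phosphate pH 6 were incubated 18 h at 30 °C with QS-18 at 1 mg/ml final. Reactions quenched with MeCN; deglycosylation activity determined by LC-MS/MS.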

Experiment [3] in a line: Experiment 4-4: screening of glucosidases for deglycosylation of QS-18 in crude bark extract (1 in 20 dilution) to QS-21. The settings on record: CBE 1 in 20 dilution, pH 6, 25 degC, 18 hours; % conversion of Middle Peak by UV HPLC. The protocol:
Lysates were prepared as in Experiment 4-2.
Crude bark extract (CBE) was adjusted to pH 6 by dropwise addition of 2M NaOH with stirring. 25 uL of clarified lysate was transferred to a reaction plate, 22.5 ul of 100 mM potassium phosphate buffer pH 6 was added, 2.5 ul CBE at pH 6 was added. Reaction plates were sealed, incubated at 25 degC with shaking for 18 hours, then quenched by addition of 50 uL acetonitrile (MeCN). Quenched reaction plates were re-sealed and incubated at 20 degC with shaking for 10 min. The reaction plates were centrifuged (10 min, 4 degC) and analysed by UV HPLC with the method below:
Three key peaks of interest are apparent using this chromatography: Left Peak (retention time approximately 2.30-2.35 min) comprising mainly QS-17 family components; Middle Peak (retention time approximately 2.37-2.42 min) comprising mainly QS-18 family components and desglucosyl-QS-17 family components; and Right Peak (retention time approximately 2.44-2.50 min) comprising mainly QS-21 family components. Peak identity was supported by MS/MS.
Enzyme activity is calculated as the % conversion of the Middle Peak present in the crude bark extract: […]

Some results are limits rather than exact numbers.

B1: 380 (protein, listed as Ogataea parapolymorpha)
chain: MSTFDVDDILSQLHVKEKVQLLSLKDFWHTANIDRLNIPSVRLSDGPNGVRGTKFFRSVPSACFSSGTALAATFNMPLLEQLGKLMAEEARHKGAHVILGPTCNIARGPLGGRGFESFSEDPYLSGIAAAAIIKGIESQGIGATLKHFVCNDLEDERNSIDVILSDRALREIYLLPFQIAIKEANPKCVMSSYNKVMGEHVSQSKKLLTDILRKEWGWDGLTMSDWFGVYSIKSSLDAGLDLECPGYPLMRKHDALIHAISSREINMDVIDIRVRNILKLVQHALKSSIPQNAPEDSENNTPETSALLRKAASEAIVLLKNESSILPLKPSDEIAVIGPNARIPRMYGGGSASVNCYYGISVYDGISNKIGSQPPYSMGCDIARNMFDLGKLASYKGEPGVRIKVYKEAPGTPDRSLIEEFRYDSLQLLLFDYNHEKLDSSLFYFDIEGEFTSDKDMSYDIHLSCLGTALLYINGELFIDDKTNQKMGFAAIGASSLGDTKTIHMKKDERIEFKIEFGSAPTFTLETLDLVASNGGGSLTVAIGEKITDQNRINDAVELAKTADKVILCVGTSSDWESEGFDRPHMDLPKSQGILIEEILKVNKNIILVNLSGTPVTLPWIDEIPAVVHGWFNGMESGNAMADVLYGDVNASGKLSLSWPKRCEDNPSFLNFKSDKGKVVYGEDVFVGYRYYEKVCREPLFAFGYGLSYTAFNFDGLDVKVAADNLVCTLNIKNIGKLRGAEVVQLYVIPPLTTTTVSRPLKEFKGCQKVFLEPGQKITTTISVPIKYACSYFDVERQKWSIESGEYGVFIGNSSDAMDALIGKFVIQKPLLWSGL
B1: the “Expt 4-1 % conv” value in experiment [1] worked out at 2.4%. The “Expt 4-2 % conv” value in experiment [2] is given as 0.5%. The “Expt 4-4 % conv” value in experiment [3] was <3%.

B2: 234 (protein, listed as Sphingobium chlorophenolicum)
chain: MTFPRSLFLASTILAFHCNPSFARNESPAKAIERADKTLKAMTPEEKTILTHGIMPLKILPNSPEPPAEAIPGAGYIKGIPRLGVPALYETDASLGVSYVFGLRKDGATALPSGLAQASTWNPALIEKAGRMIGAETRAKGFNVLLAGGVNLMRDPRNGRNFEYLGEDPLLAGTLVGHAIRGIQSNHIISTIKHFAFNGQETARKLVDSKISAANAHESDLLAFKIGIEIGDPGSVMCAYNKVNGHSACDNNWLLNTVLKHDWGYKGFVMSDWGAVPSLGAALNGLDQQSGEQLDTAVFFGDTLAAAAKSNPVYAKRLDDMNRRILWAIYNNGLDANPAKPGGVIDFKAHGDIAEQVARQGIVLLRNERGVLPLAASTKRIAVIGGYANSGVLSGAGSSQVQAEGGPAVYIPAGNGDENSSFIAESYHNSVPLKALRAAAPNAEITYRNGRYIAEAVAQAKKSDVAIVFATQWTSEGFDVPDMSLPNGQDALLAAVAAANPNTVVVLETGGPVMMPWLDSTAAVIEAWYPGARGAEAIAAVLTGKVNPSGKLPVTFPAHKDQLPRAEVDGMDSTEPSFLGMPDLKGQALVADYDIEGSNIGYRWNALKGNKALFPFGHGLSYTSFAASGLKTDGARASARITNTGKADGATIAQLYLVSRTGKPARRLVSFQRVELVAGQSKPLAMTIDPRLLGDWRDGNWTIVAGDYGFALGEDAEHLGPVTTVRLKGRTWRD
B2: the “Expt 4-1 % conv” value in experiment [1] came to 2.5%. Also, the “Expt 4-2 % conv” value in experiment [2] was 0.7%. Also, in experiment [3], the “Expt 4-4 % conv” value is on record as <3%.

B3: 222 (protein, listed as Marinomonas posidonica)
chain: MTPKDILNALTVEEKARLCTGKDFWHLHGIERLELPSIMVTDGPHGLRKQSGEGDHVGLNASVKATCFPTASGLASSWNPALIEKMGVALGKECRAENVSVLLGPGINIKRNPLGGRNFEYFSEDPLIAGDMSTAWIKGVQSQDVGTSLKHYAVNNHEHCRMTVDAVVDQRTLREIYLPAFEKAIKQSQPWTVMCAYNKINGTYAAEHQQLLDDILVKEWGFEGIVVTDWGANNDRVEGIKHGQHLEMPSSGELNTQKILDAIDSGRLSIAALDKSVLRVLELIVKSQAALNNAPVNVDLERHHTLASKVAEESCVLLKNDQLLPAQKDQNVLVIGALANNTRYQGAGSSKINPFKLEQPLAQIEAVFGTNNVRYSQGYQLNDESDQTMIEDAVAQAEQADVIFLFAGLTPKYESEGFDRQHLNLPQVQLDLIDALGDQLGKTAVILQNGAPVTLPFVDKVPAILEAYLGGQAGASAIAKILAGDVNPSGKLAETFPLSLDDVPSQPYFPGTTKQTQYREAIWVGYRYFAHTAQPVLFPFGHGLTYSEFSFSELRIMDDKLDLKAVSFDEQTRIRLQVTVTNTGDRAGAEVVQCYLGQNKPSQPRPAKELRAYQKVFLEAGQSKCVELELNYRDFAFWCEADSQWRVESDDYHIQIGASVEDIRLTTLITLKTDTPLAPQNATLSAYFTPADRQFNDQSFSALLGKPIPDATPITPYTLNSTLGDIAQTEQGKPLFNAMLSVFSKMMEGDTNDSAAEADKLMAEAMVSDMPLRNLPVFNSQSYSEEALLALLADLNS
In the case of B3, in experiment [1], the “Expt 4-1 % conv” value was 1.6%. Further, the “Expt 4-2 % conv” value in experiment [2] was 0.4%. The “Expt 4-4 % conv” value in experiment [3] is on record as <3%.

B4: 365 (protein)
chain: MEDDGANSKTELSDQRKVALLSGADDWHTEAVPELGLEAVMMADGPHGLRKVMSASLADLQASEPATCFPTGSALAATWDRVLAGDVGRAIGREAVAEGVGVVLGPAVNLKRHPAAGRNFEYFSEDPFLAGELAVAWIDGVQGEGVGASLKHFAVNNQEANRMVVDAVVDPATLRELYLGAFEAAVRRSRPWTVMSAYNLLNGVYCSEDPWLLSELLRDQWGFDGLVVTDWGANDDRVAGIRAGQDLEMPGGHGTHDAAVLAALADGSLHRADLDGCVRRVLALLERADGARSGRPGSAMASPRPGADPDALHREHHQLARRAAAAGTVLLTNDGTLPLAPSGHVALIGEFAAHPRFQGGGSSQVKATRSDNLHAELRTHVDAAGGRVQYAPGYVLRARDDRPGEPARRVDEAVSIARGAEVAVVVVGLPDAVESEGFDRDHLHLPESHNILVRAVCAANPNTVVIVVAGSPVTMDWVDQPAAIIHGYLGGQAAGGALADVLVGAAEPGGRLAETFPVRSAGVASDRWFPGEPHQVTYREGPYIGYRWFDASGATPLFPFGHGLSYAEITLGVPTLSAQHVDAGVLLGGTDVVAPAEVPPPGAGPVAFTVTVPLTNAGDRAGSEVVQVYLESPDTGRPAAHRHLVGFAKVNLEPNSTREATVDVHARALCHWHPADRGWAVSAGTWGVAVGCSSGNLPHGLMVEVASSWSAPEPDPALDPYRNPRPDDWDPGVAAFEALLGRSVPEPTPVRPFTRNTTLGELGETRLGRPLLALVRAIVAHTTGGAHDEGGLGAMIDRSLGELPLRNLAVMSQGRVPMSAINRLIALANRMPGHPAGHPPGRPPGRSVGFTRPGRRR
modifications: Candidatus microthrix
Take B4: the “Expt 4-1 % conv” value in experiment [1] worked out at 1.3%. In experiment [2], the “Expt 4-2 % conv” value amounted to 0.4%. Further, the “Expt 4-4 % conv” value in experiment [3] was <3%.

B5: 339 (protein, listed as Koribacter versatilis)
chain: MKISRVFLATTLALSMFGSAQRPDPRAELMKKPWMDKNKSADERAELVLKEMTVDEKINLIHGQGMEEMAEFGIPMPNKALGNGGAGFVLGVERLGIPLIQMSDAAYGVRSSAKNGRYSTALPSNLGSAASWDPQAACEYGALIGRELRAQGYNMTLGGGVNITREPRNGRTFEYMGEDPILAGTLVGNRIKCEQAQHVIGDTKHYAVNDQESGRTEVDVVISKRAMRETDLLAFEIGIEIGQPGAVMCSYNLVNGTYACQNKYLLTDVLKKDWNFKGFVVSDWGATHSTIESSAAGLDNEQPFGIFYSDKFKAGLDSGKIPMSELDDHVRRILRTEFASGIVDNPVVKAVVDVEAGLETARKIEEGSIVLLKNGNNILPLDKDSIKSVAIIGEKADFGMISGGGSAQVDPPGPSHEWQAHVWFPTSPLKAVQAKLPNAKVDWRSGSDKSKAAALAKQSDIAIVFVHQWISEGMDLPDLTLPFGQDELIERVAAANPRTIVVLESGTAVTMPWLDKVSGVVEAWYGGSKGADAVANILFGDVNPSGKLPMTFPRSVEDVPHPKLAVPPPNPNPMETYMHPELAKATVTATYDEGVKVGYKWYDAEKKPVLFPFGFGLSYTTYQYSGLKVSSGKTTTVSFTVKNTGKRGGDEIAQVYASLPAEAQEPPKRLVGFTKVHLNAGESKEVSVTVPAKYLSVFDEASNGWKLVPGSYSFMVGGSSQDLPQKQSATF
B5: the “Expt 4-1 % conv” value in experiment [1] was 1.4%. The “Expt 4-2 % conv” value in experiment [2] was determined as 0.5%. The “Expt 4-4 % conv” value in experiment [3] is recorded as <3%.

B6: 354 (protein, listed as Chthonomonas calidirosea)
chain: MGKTKRSLKVNRRDFFTLGAATLLAAISLPDGDLLAFAQKEREKDLVYGIRRERFEWAQKKAAALVAQMTREEKISQVGNNVPAIPRLGLPAYNYYSGEALHGLVRGGPVTSFPLPLALANTWNPELQYQVYTAVSDEARAYHNRDGVGLAYYSPQTINTAKDPRWGRIEETLGEDPHLMSLMAVQAVRGMQGDDPNYLKTVACAKHYIANETDNDRTAVSETVDPRSFWEYYVRPFYACVVDGKVFSVMGAYNAVNGIPCCADKNLLTGILRERWGFQGYVTSDCDAIYNIYDPHHYATSLAEACAMGIKAGCDLDCGDTYPRHLGEAFEQHLLEEADLDKAVTRLLTARFLFGDLDPEPRCPYNKIPFSVVDSPKHRALALEAARQSIVLLKNDGILPLDKTALKSVAVIGPTAAIAHLGGYSGAPFLRVSPLSGIAQALGIGIHFDEVYAYQAVRLEGGPQLESSVEQGGTDIGFIKNGSWVEFPATDFAGKNEIEVRVASDTQGGTIEIHLDRLNGPLLCTLQVPHTGGWQNWISLKAPINGVIGKHKLFFLFKGGDGYLLNVAWYRLNPPSPPETHNPNGIALTYQQGCTITGARNDTMFQKAVEAARQADVAIVVAGVNQEVDAEGHDRDDIRLTGAQHELIQAVYQANPKTILVLSTNAPVAVTWEQENLPAIVAAIFAGQAQGTAIADVLFGNYNPSGKLATTWYKSVEDLPDFHDFDITKRTYMYFEGEPLYPFGYGLSYTTFQIGNIQVSHPRLTSGGSITVSVDVTNIGKRAGTEVVQLYVRPPKSPVKRPNKQLVDFKRVELRPGETKRVELSLPYESPALWYWDVAQSKFVLQPGTVTLMVGNSSAHIAHTTTIELV
Consider B6, for which, in experiment [1], the “Expt 4-1 % conv” value is 1.6%. Further, in experiment [2], the “Expt 4-2 % conv” value amounted to 0.5%. The “Expt 4-4 % conv” value in experiment [3] was <3%.

These data come from patent US20240026407A1, “MODIFICATION OF SAPONINS” (GLAXOSMITHKLINE BIOLOGICALS SA, priority 2020, published 2024).
